What was measured:
Assay in all cases: immunoprecipitation followed by mass spectrometry
Details in all cases: 2 h EBSS and 300 nM Torin 1; YKT6 siRNA-treated HEK293T WT cells; read off a plot
SEC24C = biological target: SEC24C
BET1 = biological target: BET1
SNAP23 = biological target: SNAP23
VAMP8 = biological target: VAMP8
SEC22B = biological target: SEC22B
VTI1B = biological target: VTI1B
NSF = biological target: NSF
NAPA = biological target: NAPA
STX5 = biological target: STX5

Row | Substance | other: Log2 T156A : WT ratio (SEC24C) [log2] | other: Log2 T156A : WT ratio (BET1) [log2] | other: Log2 T156A : WT ratio (SNAP23) [log2] | other: Log2 T156A : WT ratio (VAMP8) [log2] | other: Log2 T156A : WT ratio (SEC22B) [log2] | other: Log2 T156A : WT ratio (VTI1B) [log2] | other: Log2 T156A : WT ratio (NSF) [log2] | other: Log2 T156A : WT ratio (NAPA) [log2] | other: Log2 T156A : WT ratio (STX5) [log2] | other: Log2 T156E : WT ratio (SEC24C) [log2] | other: Log2 T156E : WT ratio (BET1) [log2] | other: Log2 T156E : WT ratio (SNAP23) [log2] | other: Log2 T156E : WT ratio (VAMP8) [log2] | other: Log2 T156E : WT ratio (SEC22B) [log2] | other: Log2 T156E : WT ratio (VTI1B) [log2] | other: Log2 T156E : WT ratio (NSF) [log2] | other: Log2 T156E : WT ratio (NAPA) [log2] | other: Log2 T156E : WT ratio (STX5) [log2]
1 | HA–YKT6-WT (full-length, siRNA-resistant) (from UniProt O15498) T156A | 0.67 | 0.27 | 2.8 | 1 | 1.9 | 1.4 | 2.3 | 1.6 | 1.2 | – | – | – | – | – | – | – | – | –
2 | HA–YKT6-WT (full-length, siRNA-resistant) (from UniProt O15498) T156E | – | – | – | – | – | – | – | – | – | 0.18 | -4.4 | -1.5 | -2 | -1.3 | -0.7 | -0.3 | -0.8 | -0.7

Reference: publication PMC10022743
